In patent publication US20100175139A1, “SOMATO[…]” (priority 2007, published 2010):

Experiments:
Assay type in all cases: cell-based
[1] = tested on: SBE4 responsive element (smad2/3 mediated transcriptional activation); test: SBE4 responsive element luciferase reporter in NIH-3T3 cells; settings: transgenic TGF-β3 over-expression vs control GFP retrovirus, 48 hours
From the text: (§1) NIH-3T3 cells were transfected with plasmids containing TGF-β responsive elements driving luciferase expression. These cells were then transduced with a retroviral vector expressing TGF-β3. The SBE4 responsive element is specific to TGF-β activation via smad2/3 mediated transcriptional activation. This Smad activation can be further delineated to Smad2 specific transcriptional activation using the ARE responsive element in conjunction with the xenopus Fast-1 transactivator (ARE alone is only Smad2/3 specific). The BMP-specific responsive element activates through Smad1/5/8 activation and should not be responsive to TGF-β3 activity. […] The experiment was conducted as follows:
(§2) NIH-3T3 cells pre-plated at 1×10^6 cells/well and transfected with 10 μg of reporter plasmid by standard Calcium Phosphate precipitation. After 48 hours cells were transduced with either rKat.TGF-β3 or a control rKat.cmvGFP retrovirus. […] After 48 hours luciferase expression was measured in cell lysates. […] Relative luciferase activity was expressed in arbitrary units with respect to total protein measured by standard Bradford assay as by manufacturer's instructions (BioRad, Herts, UK).

[2] = tested on: ARE responsive element (Smad2/3 specific); test: ARE responsive element luciferase reporter in NIH-3T3 cells; settings: TGF-β3 over-expression
From the text: as §1, §2

[3] = tested on: ARE responsive element with xenopus Fast-1 transactivator (Smad2 specific); test: ARE/Fast-1 responsive element luciferase reporter in NIH-3T3 cells; settings: TGF-β3 over-expression
From the text: as §1, §2

Smad7 promoter = Smad7 promoter luciferase reporter in NIH-3T3 cells; settings: TGF-β3 over-expression
From the text: as §1, §2

[4] = tested on: BMP responsive element BRE (Smad1/5/8); test: BMP responsive element BRE luciferase reporter in NIH-3T3 cells (negative control); settings: TGF-β3 over-expression
From the text: as §1, §2

[5] = tested on: MDF-CAGA(12)-Luc cells (Smad2/3 specific transcriptional activation); test: CAGA(12)-Luc reporter in primary murine dermal fibroblasts; settings: conditioned medium from TGF-β3 over expressing cells vs GFP control
Experimental: A cell line transgenic for a synthetic TGF-β responsive element driving the firefly luciferase gene was generated from primary mouse dermal fibroblasts. The CAGA(12) Smad Binding Element (SBE) was placed upstream of a minimal promoter and will respond to Smad2/3 specific transcriptional activation. Primary murine dermal fibroblasts (MDF) were transduced with a lentiviral vector containing the CAGA(12)-Luc element. These cells were then incubated in conditioned medium from MDFs transduced with a lentivector expressing either TGF-β3 or GFP. The experiment was carried out as follows:
Murine dermal fibroblasts (MDF) were isolated as previously described by DiPersio et al. (DiPersio, C. M., S. Shah, and R. O. Hynes. 1995. alpha 3A beta 1 integrin localizes to focal contacts in response to diverse extracellular matrix proteins. J Cell Sci 108 (Pt 6):2321-36) and expanded to ˜60% confluence and transduced with a lentivector expressing a luciferase reporter gene under the control of either a smad 2/3-specific CAGA(12) promoter. Lentiviral preps were generated as described in Example 1. […] Relative luciferase activity was expressed in arbitrary units with respect to total protein measured by standard Bradford assay as by manufacturer's instructions (BioRad, Herts, UK).

[6] = tested on: 293T cells transduced with Lenti/CAGA(12)-Luc; test: Lenti/CAGA(12)-Luc reporter in 293T cells with or without human αvβ3 integrins; settings: conditioned medium from cells over-expressing TGF-β3
From the text: Human embryonic kidney 293T cells stably expressing the human αvβ3 integrins and control 293T cells were transduced with the Lenti/CAGA(12)-Luc vector to generate two transgenic lines. Again, these cells were subjected to conditioned medium from cells either over-expressing TGF-β3 or control cells. In more detail:
Human 293T cells stably transfected with αv and β3 integrin (293Tab) along with 293T controls were a kind gift from Dr. John Olsen, UNC, USA. 293T cells and 293Tabs were transduced with Lenti-CAGA(12)-Luc and human DFs were tranduced with lentivirus either expressing human TGF-β3iresGFP, mutant TGF-β3iresGFP or a GFP control. Cells were cultured for a further 48 hours prior to trypsinisation and mixing of 293 cells and transduced DFs in a 1:1 ratio. Cells were incubated for a further 24 hours in serum containing medium then incubated for 48 hours in serum depleted medium supplemented with ITS+1 (Sigma-Aldrich). Cells were subsequently either FACS analysed, to assess the ratio of 293T cells to DFs, or lysed for the purpose of quantifying the luciferase expression.

B1: TGF-β3: TGF-β3 over-expressed from a retroviral/lentiviral vector; cells exposed by transduction or conditioned medium (protein, UniProt P10600 301-412, looked up)
Transforming growth factor …: ALDTNYCFRNLEENCCVRPLYIDFRQDLGWKWVHEPKGYYANFCSGPCPYLRSADTTHSTVLGLYNTLNPEASASPCCVPQDLEPLTILYYVGRTPKVEQLSNMVVKSCKCS
[1]
  upregulation of SBE4 element over controls (luciferase): ~1000 fold
[2]
  luciferase response of ARE element over controls: significant responses over controls
[3]
  luciferase response of ARE/Fast-1 element over controls: significant responses over controls
Smad7 promoter
  luciferase response of Smad7 promoter over controls: significant responses over controls
[4]
  luciferase response of BRE element over controls: did not show a significant response over controls
[5]
  luciferase response compared to control: significant luciferase response
[6]
  luciferase output in αvβ3 expressing cell lines compared to control 293T cells: significantly enhanced
